According to patent US20250353907A1 (SHANGHAI SIMNOVA BIOTECHNOLOGY, published 2025):

Molecular target: T1, recombinant human CD19-His (human, UniProt P15391 20-291, limits assumed)
T1 construct: This is the analyte in SPR; also called human CD19 protein; CD19 antigen protein; not shown: His tag
T1 sequence (looked up): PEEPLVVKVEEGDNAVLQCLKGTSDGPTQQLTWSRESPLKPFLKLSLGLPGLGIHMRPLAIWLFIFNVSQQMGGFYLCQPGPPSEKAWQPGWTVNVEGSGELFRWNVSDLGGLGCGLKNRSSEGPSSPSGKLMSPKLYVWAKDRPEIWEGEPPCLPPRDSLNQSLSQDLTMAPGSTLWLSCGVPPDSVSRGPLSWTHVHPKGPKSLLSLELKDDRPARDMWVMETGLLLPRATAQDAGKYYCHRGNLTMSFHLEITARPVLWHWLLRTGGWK
Assay: SPR (Biacore), CD19-His as analyte, 1:1 Langmuir model
Protocol: The anti-human CD19 antibody was captured using a Protein A chip (GE Healthcare; 29-127-558).
The sample and running buffer was HBS-EP+ (10 mM HEPES, 150 mM NaCl, 3 mM EDTA, 0.05% surfactant P20) (GE Healthcare; BR-1006-69). The flow cell was set at 25° C. The sample block was set at 16° C. Both were pretreated with the running buffer. In each cycle, first, the antibody to be tested was captured using the Protein A chip, and then a single concentration of CD19 antigen protein was injected. The association and dissociation processes of the antibody with the antigen protein were recorded, and finally, the chip was regenerated using Glycine pH 1.5 (GE Healthcare; BR-1003-54). The association was determined by injecting different concentrations of recombinant human CD19-His in the solution and maintaining for 240 s, wherein the flow rate was 30 μL/min, and the protein was diluted in a 1:1 dilution ratio from 200 nM (see detailed results for actual concentrations tested) to obtain 5 concentrations in total. The dissociation phase was monitored for up to 600 s and triggered by switching from the sample solution to the running buffer. The surface was regenerated by washing with 10 mM glycine solution (pH 1.5) at a flow rate of 30 μL/min for 30 s. The difference in bulk refractive index was corrected by subtracting the responses obtained from the […]. Blank injections were also subtracted (=double reference). The Langmuir 1:1 model was used to calculate the apparent KD and other kinetic parameters.

B1: hFMC63 (humanized FMC63, hFMC63-VH1 + hFMC63-VL1) (antibody, V domains shown)
VH: EVTLKESGPVLVKPTETLTLTCTVSGFSLSDYGVSWIRQPPGKALEWLAVIWGSETTYYNSALKSRLTISKDTSKSQVVLTMTNMDPVDTATYYCAKHYYYGGSYAMDYWGQGTTVTVSS
VL: DIQMTQSPSSLSASVGDRVTITCRASQDISKYLNWYQQKPGGAVKLLIYHTSRLHSGVPSRFSGSGSGTDYTLTISSLQPEDFATYYCQQGNTLPYTFGGGTKVEIK
Question: Which results are given for B1?
Answer: Kd: 0.0195 nM; koff: 1.8e-06 s⁻¹; kon: 92400 M⁻¹ s⁻¹
